Results as given in patent US12099068B2, “Biomarkers for graft-versus-host disease” (Incyte Corporation, priority 2018, dated 2024).

Tested on: plasma proteins
Assay: Plasma proteins modulated between baseline and day 28 in responders (CR, VGPR, PR; n = 19), Example 6 (Table 13)
Type: in vivo, human
Conditions: plasma protein (OLINK NPX); responders (CR, VGPR, PR; n = 19); itacitinib 200 mg or 300 mg QD with corticosteroids; day 28 vs baseline
How it was run: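 Longitudinal comparison, day 28 versus baseline, with steroid-naive (N=10) and steroid-refractory (N=18) patients combined. Proteins measured by OLINK proximity extension, log2 normalized protein expression. Differences tested by t tests, ANOVA, Pearson correlation, P<0.05 significant.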

B1: SIT1 (protein, UniProt Q9Y3P8 25-196, looked up)
Signaling …: DNCTDLLALGIPSITQAWGLWVLLGAVTLLFLISLAAHLSQWTRGRSRSHPGQGRSGESVEEVPLYGNLHYLQTGRLSQDPEPDQQDPTLGGPARAAEEVMCYTSLQLRPPQGRIPGPGTPVKYSEVVLDSEPKSQASGPEPELYASVCAQTRRARASFPDQAYANSQPAAS
  Fold Change, Decreased Expression from Baseline to Day 28: −1.5501

B2: CA12 (protein, UniProt O43570 25-354, looked up)
Carbonic anhydrase 12: APVNGSKWTYFGPDGENSWSKKYPSCGGLLQSPIDLHSDILQYDASLTPLEFQGYNLSANKQFLLTNNGHSVKLNLPSDMHIQGLQSRYSATQLHLHWGNPNDPHGSEHTVSGQHFAAELHIVHYNSDLYPDASTASNKSEGLAVLAVLIEMGSFNPSYDKIFSHLQHVKYKGQEAFVPGFNIEELLPERTAEYYRYRGSLTTPPCNPTVLWTVFRNPVQISQEQLLALETALYCTHMDDPSPREMINNFRQVQKFDERLVYTSFSQVQVCTAAGLSLGIILSLALAGILGICIVVVVSIWLFRRKSIKKGDNKGVIYKPATKMETEAHA
  Fold Change, Increased Expression from Baseline to Day 28: 1.247

B3: DDX58 (protein, UniProt O95786 1-925, looked up)
Antiviral innate immune …: MTTEQRRSLQAFQDYIRKTLDPTYILSYMAPWFREEEVQYIQAEKNNKGPMEAATLFLKFLLELQEEGWFRGFLDALDHAGYSGLYEAIESWDFKKIEKLEEYRLLLKRLQPEFKTRIIPTDIISDLSECLINQECEEILQICSTKGMMAGAEKLVECLLRSDKENWPKTLKLALEKERNKFSELWIVEKGIKDVETEDLEDKMETSDIQIFYQEDPECQNLSENSCPPSEVSDTNLYSPFKPRNYQLELALPAMKGKNTIICAPTGCGKTFVSLLICEHHLKKFPQGQKGKVVFFANQIPVYEQQKSVFSKYFERHGYRVTGISGATAENVPVEQIVENNDIIILTPQILVNNLKKGTIPSLSIFTLMIFDECHNTSKQHPYNMIMFNYLDQKLGGSSGPLPQVIGLTASVGVGDAKNTDEALDYICKLCASLDASVIATVKHNLEELEQVVYKPQKFFRKVESRISDKFKYIIAQLMRDTESLAKRICKDLENLSQIQNREFGTQKYEQWIVTVQKACMVFQMPDKDEESRICKALFLYTSHLRKYNDALIISEHARMKDALDYLKDFFSNVRAAGFDEIEQDLTQRFEEKLQELESVSRDPSNENPKLEDLCFILQEEYHLNPETITILFVKTRALVDALKNWIEGNPKLSFLKPGILTGRGKTNQNTGMTLPAQKCILDAFKASGDHNILIATSVADEGIDIAQCNLVILYEYVGNVIKMIQTRGRGRARGSKCFLLTSNAGVIEKEQINMYKEKMMNDSILRLQTWDEAVFREKILHIQTHEKFIRDSQEKPKPVPDKENKKLLCRKCKALACYTADVRVIEECHYTVLGDAFKECFVSRPHPKPKQFSSFEKRAKIFCARQNCSHDWGIHVKYKTFEIPVIKIESFVVEDIATGVQTLYSKWKDFHFEKIPFDPAEMSK
  Fold Change, Decreased Expression from Baseline to Day 28: −1.6381

B4: B4GAT1 (protein, UniProt O43505 1-415, looked up)
Beta-1,4-glucuronyltransferase …: MQMSYAIRCAFYQLLLAALMLVAMLQLLYLSLLSGLHGQEEQDQYFEFFPPSPRSVDQVKAQLRTALASGGVLDASGDYRVYRGLLKTTMDPNDVILATHASVDNLLHLSGLLERWEGPLSVSVFAATKEEAQLATVLAYALSSHCPDMRARVAMHLVCPSRYEAAVPDPREPGEFALLRSCQEVFDKLARVAQPGINYALGTNVSYPNNLLRNLAREGANYALVIDVDMVPSEGLWRGLREMLDQSNQWGGTALVVPAFEIRRARRMPMNKNELVQLYQVGEVRPFYYGLCTPCQAPTNYSRWVNLPEESLLRPAYVVPWQDPWEPFYVAGGKVPTFDERFRQYGFNRISQACELHVAGFDFEVLNEGFLVHKGFKEALKFHPQKEAENQHNKILYRQFKQELKAKYPNSPRRC
  Fold Change, Increased Expression from Baseline to Day 28: 1.2795

B5: TRAF2 (protein, UniProt Q12933 2-501, looked up)
TNF receptor-associated …: AAASVTPPGSLELLQPGFSKTLLGTKLEAKYLCSACRNVLRRPFQAQCGHRYCSFCLASILSSGPQNCAACVHEGIYEEGISILESSSAFPDNAARREVESLPAVCPSDGCTWKGTLKEYESCHEGRCPLMLTECPACKGLVRLGEKERHLEHECPERSLSCRHCRAPCCGADVKAHHEVCPKFPLTCDGCGKKKIPREKFQDHVKTCGKCRVPCRFHAIGCLETVEGEKQQEHEVQWLREHLAMLLSSVLEAKPLLGDQSHAGSELLQRCESLEKKTATFENIVCVLNREVERVAMTAEACSRQHRLDQDKIEALSSKVQQLERSIGLKDLAMADLEQKVLEMEASTYDGVFIWKISDFARKRQEAVAGRIPAIFSPAFYTSRYGYKMCLRIYLNGDGTGRGTHLSLFFVVMKGPNDALLRWPFNQKVTLMLLDQNNREHVIDAFRPDVTSSSFQRPVNDMNIASGCPLFCPVSKMEAKNSYVRDDAIFIKAIVDLTGL
  Fold Change, Decreased Expression from Baseline to Day 28: −1.4472

B6: ROBO2 (protein, UniProt Q9HCK4 22-1378, looked up)
Roundabout homolog 2: SRLRQEDFPPRIVEHPSDVIVSKGEPTTLNCKAEGRPTPTIEWYKDGERVETDKDDPRSHRMLLPSGSLFFLRIVHGRRSKPDEGSYVCVARNYLGEAVSRNASLEVALLRDDFRQNPTDVVVAAGEPAILECQPPRGHPEPTIYWKKDKVRIDDKEERISIRGGKLMISNTRKSDAGMYTCVGTNMVGERDSDPAELTVFERPTFLRRPINQVVLEEEAVEFRCQVQGDPQPTVRWKKDDADLPRGRYDIKDDYTLRIKKTMSTDEGTYMCIAENRVGKMEASATLTVRAPPQFVVRPRDQIVAQGRTVTFPCETKGNPQPAVFWQKEGSQNLLFPNQPQQPNSRCSVSPTGDLTITNIQRSDAGYYICQALTVAGSILAKAQLEVTDVLTDRPPPIILQGPANQTLAVDGTALLKCKATGDPLPVISWLKEGFTFPGRDPRATIQEQGTLQIKNLRISDTGTYTCVATSSSGETSWSAVLDVTESGATISKNYDLSDLPGPPSKPQVTDVTKNSVTLSWQPGTPGTLPASAYIIEAFSQSVSNSWQTVANHVKTTLYTVRGLRPNTIYLFMVRAINPQGLSDPSPMSDPVRTQDISPPAQGVDHRQVQKELGDVLVRLHNPVVLTPTTVQVTWTVDRQPQFIQGYRVMYRQTSGLQATSSWQNLDAKVPTERSAVLVNLKKGVTYEIKVRPYFNEFQGMDSESKTVRTTEEAPSAPPQSVTVLTVGSYNSTSISVSWDPPPPDHQNGIIQEYKIWCLGNETRFHINKTVDAAIRSVIIGGLFPGIQYRVEVAASTSAGVGVKSEPQPIIIGRRNEVVITENNNSITEQITDVVKQPAFIAGIGGACWVILMGFSIWLYWRRKKRKGLSNYAVTFQRGDGGLMSNGSRPGLLNAGDPSYPWLADSWPATSLPVNNSNSGPNEIGNFGRGDVLPPVPGQGDKTATMLSDGAIYSSIDFTTKTSYNSSSQITQATPYATTQILHSNSIHELAVDLPDPQWKSSIQQKTDLMGFGYSLPDQNKGNNGGKGGKKKKNKNSSKPQKNNGSTWANVPLPPPPVQPLPGTELEHYAVEQQENGYDSDSWCPPLPVQTYLHQGLEDELEEDDDRVPTPPVRGVASSPAISFGQQSTATLTPSPREEMQPMLQAHLDELTRAYQFDIAKQTWHIQSNNQPPQPPVPPLGYVSGALISDLETDVADDDADDEEEALEIPRPLRALDQTPGSSMDNLDSSVTGKAFTSSQRPRPTSPFSTDSNTSAALSQSQRPRPTKKHKGGRMDQQPALPHRREGMTDEEALVPYSKPSFPSPGGHSSSGTASSKGSTGPRKTEVLRAGHQRNASDLLDIGYMGSNSQGQFTGEL
  Fold Change, Increased Expression from Baseline to Day 28: 1.249

B7: SOST (protein, UniProt Q9BQB4 24-213, looked up)
Sclerostin: QGWQAFKNDATEIIPELGEYPEPPPELENNKTMNRAENGGRPPHHPFETKDVSEYSCRELHFTRYVTDGPCRSAKPVTELVCSGQCGPARLLPNAIGRGKWWRPSGPDFRCIPDRYRAQRVQLLCPGGEAPRARKVRLVASCKCKRLTRFHNQSELKDFGTEAARPQKGRKPRPRARSAKANQAELENAY
  Fold Change, Decreased Expression from Baseline to Day 28: −1.3214

B8: DDC (protein, UniProt P20711 1-480, looked up)
Aromatic-L-amino-acid …: MNASEFRRRGKEMVDYMANYMEGIEGRQVYPDVEPGYLRPLIPAAAPQEPDTFEDIINDVEKIIMPGVTHWHSPYFFAYFPTASSYPAMLADMLCGAIGCIGFSWAASPACTELETVMMDWLGKMLELPKAFLNEKAGEGGGVIQGSASEATLVALLAARTKVIHRLQAASPELTQAAIMEKLVAYSSDQAHSSVERAGLIGGVKLKAIPSDGNFAMRASALQEALERDKAAGLIPFFMVATLGTTTCCSFDNLLEVGPICNKEDIWLHVDAAYAGSAFICPEFRHLLNGVEFADSFNFNPHKWLLVNFDCSAMWVKKRTDLTGAFRLDPTYLKHSHQDSGLITDYRHWQIPLGRRFRSLKMWFVFRMYGVKGLQAYIRKHVQLSHEFESLVRQDPRFEICVEVILGLVCFRLKGSNKVNEALLQRINSAKKIHLVPCHLRDKFVLRFAICSRTVESAHVQRAWEHIKELAADVLRAERE
  Fold Change, Increased Expression from Baseline to Day 28: 1.5485

B9: ICAM3 (protein, UniProt P32942 30-547, looked up)
Intercellular adhesion …: QEFLLRVEPQNPVLSAGGSLFVNCSTDCPSSEKIALETSLSKELVASGMGWAAFNLSNVTGNSRILCSVYCNGSQITGSSNITVYRLPERVELAPLPPWQPVGQNFTLRCQVEDGSPRTSLTVVLLRWEEELSRQPAVEEPAEVTATVLASRDDHGAPFSCRTELDMQPQGLGLFVNTSAPRQLRTFVLPVTPPRLVAPRFLEVETSWPVDCTLDGLFPASEAQVYLALGDQMLNATVMNHGDTLTATATATARADQEGAREIVCNVTLGGERREARENLTVFSFLGPIVNLSEPTAHEGSTVTVSCMAGARVQVTLDGVPAAAPGQPAQLQLNATESDDGRSFFCSATLEVDGEFLHRNSSVQLRVLYGPKIDRATCPQHLKWKDKTRHVLQCQARGNPYPELRCLKEGSSREVPVGIPFFVNVTHNGTYQCQASSSRGKYTLVVVMDIEAGSSHFVPVFVAVLLTLGVVTIVLALMYVFREHQRSGSYHVREESTYLPLTSMQPTEAMGEEPSRAE
  Fold Change, Decreased Expression from Baseline to Day 28: −1.464

B10: ANGPTL3 (protein, UniProt Q9Y5C1 17-460, looked up)
Angiopoietin-related protein 3: SRIDQDNSSFDSLSPEPKSRFAMLDDVKILANGLLQLGHGLKDFVHKTKGQINDIFQKLNIFDQSFYDLSLQTSEIKEEEKELRRTTYKLQVKNEEVKNMSLELNSKLESLLEEKILLQQKVKYLEEQLTNLIQNQPETPEHPEVTSLKTFVEKQDNSIKDLLQTVEDQYKQLNQQHSQIKEIENQLRRTSIQEPTEISLSSKPRAPRTTPFLQLNEIRNVKHDGIPAECTTIYNRGEHTSGMYAIRPSNSQVFHVYCDVISGSPWTLIQHRIDGSQNFNETWENYKYGFGRLDGEFWLGLEKIYSIVKQSNYVLRIELEDWKDNKHYIEYSFYLGNHETNYTLHLVAITGNVPNAIPENKDLVFSTWDHKAKGHFNCPEGYSGGWWWHDECGENNLNGKYNKPRAKSKPERRRGLSWKSQNGRLYSIKSTKMLIHPTDSESFE
  Fold Change, Increased Expression from Baseline to Day 28: 1.2673
